Laboratory results from patent publication US20210238276A1 (INTEGRAL MOLECULAR, published 2021).
Residue numbers refer to the chain shown, from its start.

Legend:
Assay in all cases: flow cytometry, alanine-scan library in HEK-293T, with cytochalasin B
hsGLUT4 F307A = target: T1, hsGLUT4 F307A (human, UniProt P14672 1-509)
T1 sequence: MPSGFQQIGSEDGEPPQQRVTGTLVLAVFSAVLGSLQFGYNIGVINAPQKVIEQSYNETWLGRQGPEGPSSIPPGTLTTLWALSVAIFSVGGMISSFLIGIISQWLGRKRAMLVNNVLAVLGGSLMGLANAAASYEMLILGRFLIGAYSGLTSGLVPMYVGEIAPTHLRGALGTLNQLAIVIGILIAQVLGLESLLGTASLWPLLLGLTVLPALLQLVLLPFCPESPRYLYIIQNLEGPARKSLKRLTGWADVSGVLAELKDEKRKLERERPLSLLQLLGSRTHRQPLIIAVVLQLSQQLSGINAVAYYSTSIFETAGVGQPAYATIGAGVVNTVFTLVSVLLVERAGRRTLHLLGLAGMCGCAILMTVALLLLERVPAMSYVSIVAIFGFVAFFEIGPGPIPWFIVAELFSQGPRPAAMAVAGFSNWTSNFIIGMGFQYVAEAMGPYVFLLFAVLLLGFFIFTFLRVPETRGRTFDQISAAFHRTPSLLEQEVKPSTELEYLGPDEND
Procedure, shortened: (§1)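 HEK-293T cells expressing individual GLUT4 alanine mutants were stained 48 h post-transfection with anti-GLUT4 scFv MAbs (2 μg/ml), then biotinylated secondary and streptavidin-PerCP, and read by high-throughput flow cytometry. Where used, cytochalasin B (10 uM final) was given for 30 min before and during primary antibody staining.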

hsGLUT4 F314A = target: T2, hsGLUT4 F314A (human, UniProt P14672 1-509)
T2 sequence: T1 sequence with A307F, F314A
Procedure, shortened: as §1

hsGLUT4 E345A = target: T3, hsGLUT4 E345A (human, UniProt P14672 1-509)
T3 sequence: T1 sequence with A307F, E345A
Procedure, shortened: as §1

hsGLUT4 F405A = target: T4, hsGLUT4 F405A (human, UniProt P14672 1-509)
T4 sequence: T1 sequence with A307F, F405A
Procedure, shortened: as §1

B1: AB102 (Fc fusion)
scFv: ALTQPSSVSANLGGTVKITCSGGGSYGYGWYQQKSPGSAPVTVIYSNDQRPSDIPSRFSGSKSGSTATLTITGVRAEDEAIYYCGSTDSDYVGIFGAGTTLTVLGQSSRSSGGGGSSGGGGSAVTLDESGGGLQTPGGTLSLVCKASGFDFSSYATIWVRQAPGKGLEWVAGISGTGTGSSTGYAPAVKGRATISRDNGQSTVRLQLNNLRAEDTGSYFCAKSTGYGDSWIYPDSIDAWGHGTEVIVSS
notes: also called MAb AB102; not shown: Fc fragment of human IgG1, cloned in frame with the scFv
- % of binding to wild type GLUT4 (hsGLUT4 F307A): 22%
- % of binding to wild type GLUT4 (hsGLUT4 F314A): 23%
- % of binding to wild type GLUT4 (hsGLUT4 E345A): 80%
- % of binding to wild type GLUT4 (hsGLUT4 F405A): 105%
